Reference: US20180030151A1 (MOGAM INSTITUTE FOR BIOMEDICAL RESEARCH, published 2018)
Read-outs that look alike come from different tables or passages of the source.

Columns and labels:
[1] = biological target: T1, recombinant human TFPI (tissue factor pathway inhibitor) (human, UniProt P10646 29-304); experiment: cell-based or functional assay
[2] = biological target: T1, recombinant human TFPI (tissue factor …); experiment: SPR, Biacore T-200; IgG captured on protein A (CM5), TFPI as analyte
Experimental: Dissociation of the TFPI associated with the antibody was induced by running 10 mM glycine-HCl (pH 1.5) at a flow rate for 30 seconds. The affinities in terms of kinetic rate constants (Kₒₙ and Koff) and equilibrium dissociation constant (KD) were evaluated using Biacore T-200 evaluation software, and the results are shown in Table 24 below.

[3] = biological target: T1, recombinant human TFPI (tissue factor …); experiment: cell-based or functional assay; remark: listed apart in the source
[4] = biological target: T1, recombinant human TFPI (tissue factor …); experiment: cell-based or functional assay; remark: listed apart in the source
[5] = biological target: T1, recombinant human TFPI (tissue factor …); experiment: cell-based or functional assay; remark: listed apart in the source
[6] = biological target: T1, recombinant human TFPI (tissue factor …); experiment: cell-based or functional assay; remark: listed apart in the source
[7] = biological target: T1, recombinant human TFPI (tissue factor …); experiment: cell-based or functional assay; remark: listed apart in the source
[8] = biological target: T1, recombinant human TFPI (tissue factor …); experiment: cell-based or functional assay; remark: listed apart in the source

B1: clone 3241 (antibody, V domains shown)
VH: EVQLVESGGGLVKPGGSLRLSCAASGFTFSSYAMNWVRQAPGKGLEWVSTITTGGSYTYYADSVEGRFTISRDNAKNSLYLQMNSLRAEDTAVYYCARQDGNFLMDYWGQGTLVTVSS
VL: DVVMTQTPLSLPVTLGQPASISCKSSQSLLDIDGKTYLNWLQQRPGQSPKRLIYLVSKLDSGVPDRFTGSGSGTDFTLKISRVEAEDVGVYYCWQGTHFPFTFGQGTKVEIKR
notes: scFv on yeast at selection; human IgG4/kappa IgG as purified; also called No. 3241 antibody
A405, TF/FVIIa/FX complex assay, Ab 1.56 nM [1]: 0.157 | A405, TF/FVIIa/FX complex assay, Ab 3.13 nM [1]: 0.171 | A405, TF/FVIIa/FX complex assay, Ab 6.25 nM [1]: 0.197 | A405, TF/FVIIa/FX complex assay, Ab 12.5 nM [1]: 0.305 | A405, TF/FVIIa/FX complex assay, Ab 25 nM [1]: 0.911 | A405, TF/FVIIa/FX complex assay, Ab 50 nM [1]: 0.935 | A405, TF/FVIIa/FX complex assay, Ab 100 nM [1]: 0.937 | Kd [2]: 74 pM | effect of inhibiting TFPI, FXa activity assay, Ab 10 nM [3]: ~83% | effect of inhibiting TFPI, FXa activity assay, Ab 20 nM [3]: ~82% | % of Normalized, TF/FVIIa/FX complex assay, Ab 1.56 nM [4]: 17.2% | % of Normalized, TF/FVIIa/FX complex assay, Ab 3.13 nM [4]: 18.7% | % of Normalized, TF/FVIIa/FX complex assay, Ab 6.25 nM [4]: 21.5% | % of Normalized, TF/FVIIa/FX complex assay, Ab 12.5 nM [4]: 33.3% | % of Normalized, TF/FVIIa/FX complex assay, Ab 25 nM [4]: 99.6% | % of Normalized, TF/FVIIa/FX complex assay, Ab 50 nM [4]: 102% | % of Normalized, TF/FVIIa/FX complex assay, Ab 100 nM [4]: 102% | FXa assay % of FXa alone, 2.5 nM Ab, 10 nM TFPI [5]: 11.2% | FXa assay % of FXa alone, 5 nM Ab, 10 nM TFPI [5]: 50.9% | FXa assay OD, 2.5 nM Ab, 10 nM TFPI [5]: 0.091 | FXa assay OD, 5 nM Ab, 10 nM TFPI [5]: 0.413 | FXa assay OD, 10 nM Ab, 10 nM TFPI [5]: 0.677 | FXa assay OD, 20 nM Ab, 10 nM TFPI [5]: 0.665

B2: clone 12 (antibody, V domains shown)
VH: EVQLVESGGGLVKPGGSLRLSCAASGFTFSSYAMNWVRQAPGKGLEWVGTITTGGSHTYYADSVEGRFTISRDNAKNSLYLQMNSLRAEDTAVYYCARQDGHFLMDYWGQGTLVTVSS
VL: DVVMTQTPLSLPVTLGQPASISCKSSPSLLDIDGKTYLNWLQQRPGQSPKRLIYLVSKLDSGVPDRFTGSGSGTDFTLKISRVEAEDVGVYYCWQGTHFPFTFGQGTKVEIKR
notes: human IgG4/kappa IgG as purified; also called No. 12 antibody
Kd [2]: 8.19 pM | A405, TF/FVIIa/FX complex assay, Ab 1.56 nM [6]: 0.041 | A405, TF/FVIIa/FX complex assay, Ab 3.13 nM [6]: 0.048 | A405, TF/FVIIa/FX complex assay, Ab 6.25 nM [6]: 0.067 | A405, TF/FVIIa/FX complex assay, Ab 12.5 nM [6]: 0.097 | A405, TF/FVIIa/FX complex assay, Ab 25 nM [6]: 0.489 | A405, TF/FVIIa/FX complex assay, Ab 50 nM [6]: 0.803 | A405, TF/FVIIa/FX complex assay, Ab 100 nM [6]: 0.847 | effect of inhibiting TFPI, FXa activity assay, Ab 10 nM [3]: ~82% | effect of inhibiting TFPI, FXa activity assay, Ab 20 nM [3]: ~82% | % of Normalized, TF/FVIIa/FX complex assay, Ab 1.56 nM [7]: 4.8% | % of Normalized, TF/FVIIa/FX complex assay, Ab 3.13 nM [7]: 5.6% | % of Normalized, TF/FVIIa/FX complex assay, Ab 6.25 nM [7]: 7.8% | % of Normalized, TF/FVIIa/FX complex assay, Ab 12.5 nM [7]: 11.4% | % of Normalized, TF/FVIIa/FX complex assay, Ab 25 nM [7]: 57.7% | % of Normalized, TF/FVIIa/FX complex assay, Ab 50 nM [7]: 94.6% | % of Normalized, TF/FVIIa/FX complex assay, Ab 100 nM [7]: 99.9% | FXa assay % of FXa alone, 2.5 nM Ab, 10 nM TFPI [8]: 7.4% | FXa assay % of FXa alone, 5 nM Ab, 10 nM TFPI [8]: 38.8% | FXa assay OD, 2.5 nM Ab, 10 nM TFPI [8]: 0.0615 | FXa assay OD, 5 nM Ab, 10 nM TFPI [8]: 0.321 | FXa assay OD, 10 nM Ab, 10 nM TFPI [8]: 0.68 | FXa assay OD, 20 nM Ab, 10 nM TFPI [8]: 0.678
